Tested on: MS2 coat protein
Experiment: apparent KD of MS2 coat protein; designed switch direction (-1 OFF switch, 1 ON switch): 1; higher = weaker reporter binding
How it was run: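 SNAP-549-labelled MS2 coat protein was titrated, doubling from 0.7 or 1.5 nM to 3 µM, over designed RNA switches transcribed on Illumina chips by stalled E. coli RNA polymerase. Runs were done without input, with 200 uM small-molecule ligand, or with an oligonucleotide input. Apparent KD is the per-design median over clusters of curve-fitted normalised fluorescence.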

[1] = input ligand: microRNA oligo, concentration not stated
[2] = Eterna round: R95, input ligand: FMN 200 uM
[3] = Eterna round: R95, input ligand: microRNA oligo, concentration not stated
[4] = Eterna round: R95, input ligand: none

Sequence | apparent KD of MS2 coat protein (input ligand: FMN 200 uM) [nM] | apparent KD of MS2 coat protein [1] [nM] | apparent KD of MS2 coat protein (input ligand: none) [nM] | apparent KD of MS2 coat protein [2] [nM] | apparent KD of MS2 coat protein [3] [nM] | apparent KD of MS2 coat protein [4] [nM]
AUGCCAAAUGGAGGAUAUGGAGCCUUAUUGGCUCCAGAAGGUCGGACAUGAGGAUCACCCAUGUGGCAGUGGUCUAAUGACCAC [Eli NG1ss - 42] (Eterna round: R96, puzzle: Same State NG 1) | 242 | 293 | 463 | – | – | –
AUGGUCAAGUGUGAGGAUAUCCAUGCUCCCACAUGAGGAUCACCCAUGUCUUAAAGGGCGUAAAGGGAGAAGGUACGAACGCCAC [Edatxein] (Eterna round: R96, puzzle: Same State 2) | 73.1 | 49.2 | 80.6 | – | – | –
AUUAAACAUGAGGAUCACCCAUGUCAACAAAGUCGAGGAUAUGGGCAAAUAAUAUAAUAACCAGAAGGCGAAUAAU [salish99_ss1_r3_081] (puzzle: Same State 1) | – | – | – | 36.7 | 28.1 | 97
AUUAAACAUGAGGAUCACCCAUGUCAACAAAGUCGAGGAUAUGGGCAUAUUAUCUUAUUACCAGAAGGCGAAUAAU [salish99_ss1_r3_087] (puzzle: Same State 1) | – | – | – | – | 326 | –
AUUAACAUGAGGAUCACCCAUGUUACGAGCUUAGCUCGGACACAGGAUAUCCGGUCCUAGAGACCGGAGAAGGGUGCCUUAUAA [Zara MOD4] (Eterna round: R96, puzzle: Same State NG 3) | 742 | 123 | 265 | – | – | –
AUUAACUUGAGAGGAUAUGUAGAGGAUCACCCUACAGAAGGCUCGUUAGAGAGGAUAUGUAGAGGAUCACCCUACAGAAGGCUC [pwkr ssNG DX.9] (Eterna round: R96, puzzle: Same State NG 1) | 95.1 | 82.4 | 88.7 | – | – | –
AUUAAUAAUCGAGGAUAUCACGUCGUUUAGACGUGAGAAGGCGAUCAUAACAUGAGGAUCACCCAUGUAUUACAUGAAGUUAAU [SSNG1/4-B3] (Eterna round: R96, puzzle: Same State NG 1) | 37.8 | 26.3 | 39.3 | – | – | –
AUUAGACAUGAGGAUCACCCAUGUAGGCAGUCAUGAGGAUAUGGACAAGGUGCUCAAGGUCCAGAAGGCAUACGCC [Maxeus] (Eterna round: R96, puzzle: Same State 1) | 12.2 | 28.3 | 28 | – | – | –
AUUAUAUAUGCAGGAUAUGAUUAACAUGAGGAUCACCCAUGUGGUGUUGUGAGUAAGGAGAGUGAUCAGAAGGGCAUUUUUUUU [JMF's solution 63] (Eterna round: R96, puzzle: Same State NG 2) | 852 | 163 | 353 | – | – | –
AUUAUUAAUGCAGGAUAUGAUUAACAUGAGGAUCACCCAUGUGGUGUUGUGAGUAAGGAGAGUGAUCAGAAGGGCAAUUUUUUU [JMF's solution 7] (Eterna round: R96, puzzle: Same State NG 2) | 382 | 633 | 340 | – | – | –
AUUAUUUAUGCAGGAUAUGAUUAACAUGAGGAUCACCCAUGUGGUGUUGUGAGUAAGGAGAGUGAUCAGAAGGGCAAUUUUUUU [JMF's solution 42] (Eterna round: R96, puzzle: Same State NG 2) | 709 | 387 | 375 | – | – | –
AUUAUUUAUGCAGGAUAUGAUUAACAUGAGGAUCACCCAUGUGGUGUUGUGAGUAAGGAGAGUGAUCAGAAGGGCAUUUAUUUU [JMF's solution 47] (Eterna round: R96, puzzle: Same State NG 2) | 926 | 559 | 669 | – | – | –
AUUGCUAGCACAGGAUAUCAUGCGAAAAUUGCGUGAGAAGGGUGGACGCUGUCAUUCACGGAAGACAUGAGGAUCACCCAUGUC [SameState NG1 #77] (Eterna round: R96, puzzle: Same State NG 1) | 44.6 | 56.2 | 88.1 | – | – | –
AUUGCUAUCACAGGAUAUCAUGCGAAAAUUGCGUGAGAAGGGUGGACUCUGUCAUUGCCGGAGGACAUGAGGAUCACCCAUGUC [SameState NG1 #100] (Eterna round: R96, puzzle: Same State NG 1) | 96.2 | 27 | 60.9 | – | – | –
AUUGCUUACGCAGGAUAUGAUGCGAAAAUUGCGUCAGAAGGGUGAAAAGAAUCGUUGCAAGAAGACAUGAGGAUCACCCAUGUC [SameState NG1 #94] (Eterna round: R96, puzzle: Same State NG 1) | 29.9 | 28.2 | 59.8 | – | – | –
AUUGCUUACGCAGGAUAUGAUGCGGAAACUGCGUCAGAAGGGUGAAAAGAAUCGUUGCAAGAAGACAUGAGGAUCACCCAUGUC [SameState NG1 #95] (Eterna round: R96, puzzle: Same State NG 1) | 20 | 23 | 30.5 | – | – | –
AUUUAACAAGCUUUUUGCUCGUCUUAUAAACAUGAGGAUCACCCAUGUAAUAGCGUGAGAGUAAAUAAAUAAAUAAU [JMF 82] (puzzle: Sensor for hsa-mir-208a) | – | – | – | 17.1 | 42.7 | 14.2
AUUUAACAAGCUUUUUGCUCGUCUUAUAAACAUGAGGAUCACCCAUGUAAUAGCGUGAGAGUAAAUAAAUUAAUAAU [JMF 97] (puzzle: Sensor for hsa-mir-208a) | – | – | – | 14.4 | 46.1 | 12.2
AUUUAACAAGCUUUUUGCUCGUCUUAUAAACAUGAGGAUCACCCAUGUAAUAGCGUGAGAGUAAAUAAUUAAAUAAU [JMF 89] (puzzle: Sensor for hsa-mir-208a) | – | – | – | 13.3 | 50.7 | 9.91
AUUUAACAAGCUUUUUGCUCGUCUUAUAAACAUGAGGAUCACCCAUGUAAUAGCGUGAGAGUAAAUAUAUAAAUAAU [JMF 85] (puzzle: Sensor for hsa-mir-208a) | – | – | – | 13.8 | 42.2 | 11.9
AUUUAACAAGCUUUUUGCUCGUCUUAUAAACAUGAGGAUCACCCAUGUAAUAGCGUGAGAGUAAAUUUUUAAAUAAU [JMF 95] (puzzle: Sensor for hsa-mir-208a) | – | – | – | 14.5 | 38.9 | 14.8
AUUUAACAAGCUUUUUGCUCGUCUUAUAAACAUGAGGAUCACCCAUGUAAUAGCGUGAGAGUAAUUAAUUUAAUUAU [JMF 100] (puzzle: Sensor for hsa-mir-208a) | – | – | – | 15.5 | 32.7 | 14.1
AUUUAAUUUACUCAGGAUAUGCAUAGAUAAACAUGAGGAUCACCCAUGUAAUUAUUUUUUAAUAAGUAGAAGGGAGAUUUUUAUU [splinter_arm[switch]] (puzzle: Same State 2) | – | – | – | 54.9 | 65.4 | 147
AUUUUUAAUGCAGGAUAUGAUCAACAUGAGGAUCACCCAUGUGGUGUUGUGAGUAAGGAGAGUGAUCAGAAGGGCAUCUUUUCA [SS-NG2-LRO03] (Eterna round: R96, puzzle: Same State NG 2) | 1310 | 372 | 758 | – | – | –
AUUUUUAGUGCAGGAUAUGAUUAACAUGAGGAUCACCCAUGUGGUGUUGUGAGUAAGGAGAGUGAUCAGAAGGGCAUUUUUUUU [JMF's solution 92] (Eterna round: R96, puzzle: Same State NG 2) | 1020 | 452 | 456 | – | – | –
CACAUGAGGAUCACCCAUGUGAGGCGGCAAUAAAACCGCGCACAGGAUAUAGCGCUAUAAAUGCACUAGAAGGGUGAUUAGAAC [Zabeceis] (Eterna round: R96, puzzle: Same State NG 3) | 1680 | 69.6 | 36.4 | – | – | –
CACCAGAGGAGAGGAUAUGGUCGAACCCACAGUCCAGAAGGCUCACAGGAACCUAGAGACAUGAGGAUCACCCAUGUGGCGACC [Eternabot solution 7] (Eterna round: R96, puzzle: Same State NG 1) | 144 | 105 | 165 | – | – | –
CACGUCCAGGUAGGAUAUGAGGUGCCACAGGGAAAAGCCUGUGGACAUGAGGAUCACCCAUGUCCUCAGAAGGGCCGGACGUGG [Reanorge] (Eterna round: R96, puzzle: Same State NG 2) | 17.3 | 52.8 | 72 | – | – | –

Reference: the supplement of paper PMC9170038
